According to article PMC4227051, “B4GAT1 is the priming enzyme for the LARGE-dependent functional glycosylation of α-dystroglycan” (eLife, 2014):

Columns and labels:
B3GNT2 = target: T1, B3GNT2 (Homo sapiens, UniProt Q9NY97); assay: radioactive GlcNAc transfer, scintillation counting; type: biochemical; conditions: 0.1 M MES pH 6.5, 10 mM MnCl2, 37 °C, overnight
T1 construct: catalytic domain residues 35-397, secreted; N-terminal 8xHis-AviTag-sfGFP-TEV fusion kept; HEK293F host, Ni-NTA
T1 sequence (Q9NY97 35-397): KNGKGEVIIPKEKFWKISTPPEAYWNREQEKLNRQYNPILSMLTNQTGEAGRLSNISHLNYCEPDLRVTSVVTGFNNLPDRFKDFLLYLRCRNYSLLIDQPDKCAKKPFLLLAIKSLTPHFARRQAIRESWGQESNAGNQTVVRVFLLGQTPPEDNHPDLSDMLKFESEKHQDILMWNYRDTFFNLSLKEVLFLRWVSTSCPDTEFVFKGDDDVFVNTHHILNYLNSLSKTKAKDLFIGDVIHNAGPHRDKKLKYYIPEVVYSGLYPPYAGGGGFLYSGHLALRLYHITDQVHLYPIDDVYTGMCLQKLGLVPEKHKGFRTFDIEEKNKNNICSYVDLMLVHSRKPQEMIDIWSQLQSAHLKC

purified protein [1] = substrate: O=[N+]([O-])c1ccc(O[C@H]2OC[C@@H](O)[C@H](O)[C@H]2O)cc1; assay: purified protein; type: biochemical, Homo sapiens; conditions: 2 mM UDP-GlcA, 0.1 M MES pH 6.5, 10 mM MnCl2, 5 mM MgCl2, 37 °C, acceptor tested 200 nM to 2 mM
purified protein [2] = substrate: O=[N+]([O-])c1ccc(O[C@@H]2OC[C@@H](O)[C@H](O)[C@H]2O)cc1; assay: purified protein; type: biochemical, Homo sapiens; conditions: 2 mM UDP-GlcA, 0.1 M MES pH 6.5, 10 mM MnCl2, 5 mM MgCl2, 37 °C, 2 h, acceptor tested 200 nM to 2 mM
[3] = 16 h, glucuronyltransferase activity

Molecule: CC(=O)N[C@H]1[C@H](Oc2ccc([N+](=O)[O-])cc2)O[C@H](CO)[C@@H](O[C@@H]2O[C@H](CO)[C@H](O)[C@H](O)[C@H]2O)[C@@H]1O [Gal-β4-GlcNAc-β-pNP]
- radioactive GlcNAc transfer, scintillation counting (B3GNT2; 2 mM UDP-GlcNAc with UDP-[3H]GlcNAc): showed clear N-acetylglucosaminyltransferase activity toward the acceptor only with B3GNT2

Molecule: CC(=O)N[C@H]1[C@@H](OP(=O)(O)OP(=O)(O)OC[C@H]2O[C@@H](n3ccc(=O)[nH]c3=O)[C@H](O)[C@@H]2O)O[C@H](CO)[C@@H](O)[C@@H]1O [UDP-GlcNAc]
- radioactive GlcNAc transfer, scintillation counting (B3GNT2; donor, labelled compound, acceptor Gal-β4-GlcNAc-β-pNP): radioactive incorporation of GlcNAc into the N-acetyllactosamine acceptor

B1: B3GNT1 (B4GAT1) (Homo sapiens) (protein)
chain: RSVDQVKAQLRTALASGGVLDASGDYRVYRGLLKTTMDPNDVILATHASVDNLLHLSGLLERWEGPLSVSVFAATKEEAQLATVLAYALSSHCPDMRARVAMHLVCPSRYEAAVPDPREPGEFALLRSCQEVFDKLARVAQPGINYALGTNVSYPNNLLRNLAREGANYALVIDVDMVPSEGLWRGLREMLDQSNQWGGTALVVPAFEIRRARRMPMNKNELVQLYQVGEVRPFYYGLCTPCQAPTNYSRWVNLPEESLLRPAYVVPWQDPWEPFYVAGGKVPTFDERFRQYGFNRISQACELHVAGFDFEVLNEGFLVHKGFKEALKFHPQKEAENQHNKILYRQFKQELKAKYPNSPRRC
notes: catalytic domain residues 54-415, secreted, transmembrane domain removed; N-terminal 8xHis-AviTag-sfGFP-TEV fusion cut by TEV; HEK293F host, Ni-NTA
- Km (purified protein [1]; 2 h): 3.0 mM
- kcat (purified protein [1]; 2 h): 0.087 s⁻¹
- kcat/Km (purified protein [1]; 2 h): 29 M⁻¹ s⁻¹
- Km (purified protein [2]): 4.0 mM
- kcat (purified protein [2]): 0.25 s⁻¹
- kcat/Km (purified protein [2]): 63 M⁻¹ s⁻¹

B2: LARGE (Homo sapiens) (protein)
chain: PSHRRGNHSKTYSMEEGTGDSENLRAGIVAGNSSECGQQPVVEKCETIHVAIVCAGYNASRDVVTLVKSVLFHRRNPLHFHLIADSIAEQILATLFQTWMVPAVRVDFYNADELKSEVSWIPNKHYSGIYGLMKLVLTKTLPANLERVIVLDTDITFATDIAELWAVFHKFKGQQVLGLVENQSDWYLGNLWKNHRPWPALGRGYNTGVILLLLDKLRKMKWEQMWRLTAERELMGMLSTSLADQDIFNAVIKQNPFLVYQLPCFWNVQLSDHTRSEQCYRDVSDLKVIHWNSPKKLRVKNKHVEFFRNLYLTFLEYDGNLLRRELFGCPSEADVNSENLQKQLSELDEDDLCYEFRRERFTVHRTHLYFLHYEYEPAADSTDVTLVAQLSMDRLQMLEAICKHWEGPISLALYLSDAEAQQFLRYAQGSEVLMSRHNVGYHIVYKEGQFYPVNLLRNVAMKHISTPYMFLSDIDFLPMYGLYEYLRKSVIQLDLANTKKAMIVPAFETLRYRLSFPKSKAELLSMLDMGTLFTFRYHVWTKGHAPTNFAKWRTATTPYRVEWEADFEPYVVVRRDCPEYDRRFVGFGWNKVAHIMELDVQEYEFIVLPNAYMIHMPHAPSFDITKFRSNKQYRICLKTLKEEFQQDMSRRYGFAALKYLTAENNS
notes: catalytic domains residues 91-756, secreted; N-terminal 8xHis-AviTag-sfGFP-TEV fusion kept; HEK293F host, Ni-NTA
- Km (purified protein [1]; [3]): 6.0 mM
- kcat (purified protein [1]; [3]): 0.005 s⁻¹
- kcat/Km (purified protein [1]; [3]): 0.84 M⁻¹ s⁻¹
